According to IntAct's records for PubMed 24880343:

Biological target: pan3_drome PAN3 (UniProt Q95RR8)
Sequence (Q95RR8 whole entry): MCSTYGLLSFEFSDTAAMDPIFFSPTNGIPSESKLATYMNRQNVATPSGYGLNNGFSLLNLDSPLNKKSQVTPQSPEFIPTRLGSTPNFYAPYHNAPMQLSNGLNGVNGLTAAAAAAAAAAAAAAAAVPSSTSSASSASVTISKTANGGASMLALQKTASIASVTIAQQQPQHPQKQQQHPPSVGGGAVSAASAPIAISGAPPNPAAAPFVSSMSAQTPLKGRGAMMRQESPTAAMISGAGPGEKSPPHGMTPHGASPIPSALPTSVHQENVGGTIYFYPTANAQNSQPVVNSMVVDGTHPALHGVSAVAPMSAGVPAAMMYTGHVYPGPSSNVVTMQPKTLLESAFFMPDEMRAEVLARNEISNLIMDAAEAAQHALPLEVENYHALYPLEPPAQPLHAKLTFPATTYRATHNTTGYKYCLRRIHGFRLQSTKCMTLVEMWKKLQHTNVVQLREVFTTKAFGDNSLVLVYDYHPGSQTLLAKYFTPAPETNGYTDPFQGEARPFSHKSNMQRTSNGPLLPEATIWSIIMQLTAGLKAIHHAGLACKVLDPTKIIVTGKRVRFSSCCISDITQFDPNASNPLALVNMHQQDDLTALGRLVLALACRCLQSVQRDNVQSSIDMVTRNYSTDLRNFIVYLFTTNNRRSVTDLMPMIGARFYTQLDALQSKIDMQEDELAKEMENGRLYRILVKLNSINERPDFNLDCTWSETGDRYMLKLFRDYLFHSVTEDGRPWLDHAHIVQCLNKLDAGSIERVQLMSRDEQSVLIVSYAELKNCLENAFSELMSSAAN

Sequence of PAN2-PAN3 deadenylation complex catalytic subunit PAN2 (Drosophila melanogaster (Fruit fly)), A1Z7K9 T97R;H102G (A1Z7K9 whole entry T97R/H102G, one chain of several): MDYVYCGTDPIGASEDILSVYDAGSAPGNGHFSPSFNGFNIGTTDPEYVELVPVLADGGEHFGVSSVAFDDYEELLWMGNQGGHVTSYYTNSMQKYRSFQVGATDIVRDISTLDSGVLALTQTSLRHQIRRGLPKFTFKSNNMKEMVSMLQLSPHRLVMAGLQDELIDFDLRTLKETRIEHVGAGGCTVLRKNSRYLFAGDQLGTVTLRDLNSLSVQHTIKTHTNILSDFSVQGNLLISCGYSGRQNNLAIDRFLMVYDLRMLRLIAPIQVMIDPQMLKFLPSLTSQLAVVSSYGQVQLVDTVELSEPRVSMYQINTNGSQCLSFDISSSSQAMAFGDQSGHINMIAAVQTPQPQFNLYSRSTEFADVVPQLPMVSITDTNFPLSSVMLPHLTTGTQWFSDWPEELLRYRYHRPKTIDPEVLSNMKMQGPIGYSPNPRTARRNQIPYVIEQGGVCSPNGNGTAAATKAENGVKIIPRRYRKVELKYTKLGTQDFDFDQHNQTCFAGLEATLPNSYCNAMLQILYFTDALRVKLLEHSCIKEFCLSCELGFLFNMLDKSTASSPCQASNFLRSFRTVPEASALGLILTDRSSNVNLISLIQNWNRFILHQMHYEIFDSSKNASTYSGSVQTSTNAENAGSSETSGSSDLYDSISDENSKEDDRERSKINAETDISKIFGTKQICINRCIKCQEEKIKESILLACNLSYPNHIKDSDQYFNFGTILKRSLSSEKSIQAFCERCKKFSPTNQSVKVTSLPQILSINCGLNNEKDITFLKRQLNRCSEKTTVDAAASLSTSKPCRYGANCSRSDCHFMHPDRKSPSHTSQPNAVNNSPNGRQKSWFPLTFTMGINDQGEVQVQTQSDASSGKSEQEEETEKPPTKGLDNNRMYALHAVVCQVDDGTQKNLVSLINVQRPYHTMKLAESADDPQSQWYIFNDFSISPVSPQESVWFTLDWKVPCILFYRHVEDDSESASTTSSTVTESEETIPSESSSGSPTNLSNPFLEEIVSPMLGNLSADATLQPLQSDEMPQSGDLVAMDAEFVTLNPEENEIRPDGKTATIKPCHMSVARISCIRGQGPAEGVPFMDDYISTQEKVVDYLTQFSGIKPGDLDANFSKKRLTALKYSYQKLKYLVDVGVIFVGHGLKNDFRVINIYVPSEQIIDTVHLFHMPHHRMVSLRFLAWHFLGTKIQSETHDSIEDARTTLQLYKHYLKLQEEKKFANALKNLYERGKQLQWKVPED

effect of a mutation on the interaction: disrupting interaction strength
Substance: PAN2-PAN3 deadenylation complex catalytic subunit PAN2 (Drosophila melanogaster (Fruit fly)), A1Z7K9 T97R;H102G
